# Measured values from patent US11052053B2, “Nanoparticle comprising a bio-resorbable polyester, a hydrophilic polymer and an acylated human lactoferrin-derived peptide” (Evonik Operations GmbH, priority 2018, dated 2021).
# Bridge positions count the residues as written; N and C are the ends. * marks the point of attachment. Palmitoyl = CCCCCCCCCCCCCCCC(=O)*
# Test: hLFF-peptide precipitation test (freeze-thawing)
# Assay type: physicochemical
# Conditions: 2 mM peptide in 50 mM Hepes buffer pH 8, freezing at −18° C.
# Description: hLFF-peptides tested for precipitation by one freeze-thawing cycle (freezing at −18° C.) with hLFF peptides dissolved in 50 mM Hepes buffer pH 8 at a concentration of 2 mM.
# Solutions of acylated and biacylated human lactoferrin peptides were tested for precipitation in several freeze-thaw cycles.
row,Substance,precipitation of peptide solution after freeze-thawing
1,Acetyl-NH-KCFQWQRNMRKVRGPPVSCIKR-CONH2 (Ac-KCFQWQRNMRKVRGPPVSCIKR-NH2; disulfide 2-19; listed as Homo sapiens) [C2-hLFF],do not precipitate
2,palmitoyl-NH-KCFQWQRNMRKVRGPPVSCIKR-CONH2 (Palmitoyl-KCFQWQRNMRKVRGPPVSCIKR-NH2; disulfide 2-19) [C16-hLFF],do not precipitate
